The values that follow come from patent US20240100176A1 (Eli Lilly, published 2024).

Experiment in all cases: capture ELISA: Ab1 on anti-human IgG Fc, His-tagged receptor at 1 µg/mL, anti-His HRP
The target in experiment [1] is T1, hexahistidine tagged human IL-4Rα ECD K2D (human, UniProt P24394 26-232).
T1 construct: not shown: hexahistidine tag
From the text:
(§1) Example 2d. […] Briefly, thirty surface amino acid residue substitutions were introduced individually into hexahistidine tagged human IL-4Rα extra cellular domain (ECD) as follows: K2D, E6R, K22D, P26R, T31R, F41A, L42G, L43G, E45R, E52R, G56R, D66R, A71R, Q82G, K87D, E94R, H107A, D108R, P124R, D125R, D143R, R148D, L155R, R160D, S164R, S168R, Q181R, P192R, K195D, or H197G. Each mutant protein having a single amino acid residue substitution as described above was transiently expressed in CHO cells and purified using standard immobilized metal affinity chromatography techniques. […] The plates were then washed 3 times with PBST and the exemplified human IL-4Rα antibody was added to the wells at a final concentration of 1 μg/mL in PBS-casein and incubated for 1 hour at room temperature. The plates were washed 3 times with PBST, the IL-4Rα mutant proteins were serially diluted 5-fold from 1 μg/mL for 3 points. in PBS-casein and added to the plate at 50 μL/well and incubated for 1 hour at room temperature. The plates were washed 3 times with PBST and a 1000-fold dilution of anti-histidine tag antibody HRP conjugate (R&D Systems, Cat. #MAB050H) in PBS-casein was added and incubated for 45 minutes at room temperature. The plates were washed 3 times, TMB substrate (Pierce, Cat. #34028) was added per manufacturer instructions, the reaction was quenched with H₂SO₄, and absorbance was read at 450 nm on an ELISA plate reader.

The target in experiment [2] is T2, hexahistidine tagged human IL-4Rα ECD P26R (human, UniProt P24394 26-232).
T2 construct: not shown: hexahistidine tag
Excerpt: as §1

Experiment [3] has as its target T3, hexahistidine tagged human IL-4Rα ECD F41A (human, UniProt P24394 26-232).
T3 construct: not shown: hexahistidine tag
Excerpt: as §1

The target of experiment [4] is T4, hexahistidine tagged human IL-4Rα ECD L42G (human, UniProt P24394 26-232).
T4 construct: not shown: hexahistidine tag
T4 sequence (P24394 26-232 L67G): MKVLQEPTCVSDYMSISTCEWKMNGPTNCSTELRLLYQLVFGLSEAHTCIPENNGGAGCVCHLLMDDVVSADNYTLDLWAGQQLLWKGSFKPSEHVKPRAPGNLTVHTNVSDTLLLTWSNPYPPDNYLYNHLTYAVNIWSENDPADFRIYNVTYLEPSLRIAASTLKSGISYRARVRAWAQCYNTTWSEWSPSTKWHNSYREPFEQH
Excerpt: as §1

In experiment [5] the target is T5, hexahistidine tagged human IL-4Rα ECD L43G (human, UniProt P24394 26-232).
T5 construct: not shown: hexahistidine tag
T5 sequence (P24394 26-232 L68G): as the sequence (P24394 26-232 L67G) above, with G42L, L43G counted along it
Excerpt: as §1

Experiment [6] addresses T6, hexahistidine tagged human IL-4Rα ECD E45R (human, UniProt P24394 26-232).
T6 construct: not shown: hexahistidine tag
Excerpt: as §1

For experiment [7], the target named is T7, hexahistidine tagged human IL-4Rα ECD E52R (human, UniProt P24394 26-232).
T7 construct: not shown: hexahistidine tag
T7 sequence (P24394 26-232 E77R): as the sequence (P24394 26-232 L67G) above, with G42L, E52R counted along it
Excerpt: as §1

The target in experiment [8] is T8, hexahistidine tagged human IL-4Rα ECD G56R (human, UniProt P24394 26-232).
T8 construct: not shown: hexahistidine tag
Excerpt: as §1

Experiment [9] deals with T9, hexahistidine tagged human IL-4Rα ECD A71R (human, UniProt P24394 26-232).
T9 construct: not shown: hexahistidine tag
T9 sequence (P24394 26-232 A96R): as the sequence (P24394 26-232 L67G) above, with G42L, A71R counted along it
Excerpt: as §1

For experiment [10], the target named is T10, hexahistidine tagged human IL-4Rα ECD Q82G (human, UniProt P24394 26-232).
T10 construct: not shown: hexahistidine tag
T10 sequence (P24394 26-232 Q107G): as the sequence (P24394 26-232 L67G) above, with G42L, Q82G counted along it
Excerpt: as §1

Experiment [11] deals with T11, hexahistidine tagged human IL-4Rα ECD E94R (human, UniProt P24394 26-232).
T11 construct: not shown: hexahistidine tag
T11 sequence (P24394 26-232 E119R): as the sequence (P24394 26-232 L67G) above, with G42L, E94R counted along it
Excerpt: as §1

The target of experiment [12] is T12, hexahistidine tagged human IL-4Rα ECD H107A (human, UniProt P24394 26-232).
T12 construct: not shown: hexahistidine tag
T12 sequence (P24394 26-232 H132A): as the sequence (P24394 26-232 L67G) above, with G42L, H107A counted along it
Excerpt: as §1

Experiment [13] addresses T13, hexahistidine tagged human IL-4Rα ECD T108R (human, UniProt P24394 26-232).
T13 construct: also called D108R; not shown: hexahistidine tag
Excerpt: as §1

The target in experiment [14] is T14, hexahistidine tagged human IL-4Rα ECD L155R (human, UniProt P24394 26-232).
T14 construct: not shown: hexahistidine tag
T14 sequence (P24394 26-232 L180R): as the sequence (P24394 26-232 L67G) above, with G42L, L155R counted along it
Excerpt: as §1

Experiment [15] deals with T15, hexahistidine tagged human IL-4Rα ECD R160D (human, UniProt P24394 26-232).
T15 construct: not shown: hexahistidine tag
T15 sequence (P24394 26-232 R185D): as the sequence (P24394 26-232 L67G) above, with G42L, R160D counted along it
Excerpt: as §1

Experiment [16] addresses T16, hexahistidine tagged human IL-4Rα ECD S164R (human, UniProt P24394 26-232).
T16 construct: not shown: hexahistidine tag
Excerpt: as §1

In experiment [17] the target is T17, hexahistidine tagged human IL-4Rα ECD S168R (human, UniProt P24394 26-232).
T17 construct: not shown: hexahistidine tag
Excerpt: as §1

Experiment [18] concerns the target T18, hexahistidine tagged human IL-4Rα ECD H197G (human, UniProt P24394 26-232).
T18 construct: not shown: hexahistidine tag
Excerpt: as §1

T1 sequence (P24394 other isoform, or with tags, fused parts or gaps): as the sequence (P24394 26-232 L67G) above, with K2D, G42L counted along it
T6 sequence (P24394 26-232 E70R): as the sequence (P24394 26-232 L67G) above, with G42L, E45R counted along it

B1: anti-human IL-4Rα antibody Ab1 (antibody, human IgG4 S228P, kappa)
heavy: QVQLVESGGGLVQPGGSLRLSCVASGFTFSHSSMNWVRQAPGKGLEWVSYISRATGAVYYADSVKGRFTISRDNAKNSLYLQMNSLRDEDTAVYYCAREPVFDYWGQGTLVTVSSASTKGPCVFPLAPCSRSTSESTAALGCLVKDYFPEPVTVSWNSGALTSGVHTFPAVLQSSGLYSLSSVVTVPSSSLGTKTYTCNVDHKPSNTKVDKRVESKYGPPCPPCPAPEFLGGPSVFLFPPKPKDTLMISRTPEVTCVVVDVSQEDPEVKFNWYVDGVEVHNAKTKPREEQFNSTYRVVSVLTVLHQDWLNGKEYKCKVSNKGLPSSIEKTISKAKGQPREPQVYTLPPSREEMTKNQVSLTCLVKGFYPSDICVEWESNGQPENNYKTTPPVLDSDGSFFLYSRLTVDKSRWQQGNVFSCSVMHEALHNHYTQKSLSLSLG
light: DIQMTQSPSAMSASVGDRVTITCRASQDISNYLAWFQQKPGKVPTRLIYAASSLQSGVPSRFSGSGSGTEFTLTISSLQPEDFATYYCLQWSSYPRTFGQGTKVEIKRTVAAPSVFIFPPSDEQLKSGTASVVCLLNNFYPREAKVQWKVDNALQSGNSQESVTEQDSKDSTYSLSSTLTLSKADYEKHKVYACEVTHQGLSSPVTKSFNRGEC
notes: human kappa light chain; also called anti-human IL-4Rα Ab1; unconjugated Ab1
Consider B1, for which the “ELISA (OD450)” value in experiment [1] came to 2.05 OD450; in experiment [2] it was 1.66 OD450; in experiment [3], 1.76 OD450; in [4] it was 1.71 OD450; in experiment [5] it was 1.7 OD450; in [6], 1.7 OD450. For the same molecule, the “ELISA (OD450)” value in [7] stood at 1.73 OD450; in experiment [8], 1.73 OD450; in experiment [9], 1.7 OD450; in experiment [10], 1.74 OD450; in experiment [11], 1.73 OD450; in [12], 1.89 OD450. Moreover, the “ELISA (OD450)” value in experiment [13] was 1.88 OD450; in experiment [14], 1.78 OD450; in [15], 1.91 OD450; in experiment [16] it was 1.92 OD450; in experiment [17], 1.88 OD450; in experiment [18], 1.85 OD450.
